Results as given in patent US20230340152A1 (published 2023).

Columns and labels:
Test in all cases: SPR (ProteOn), CD73 variant immobilized on HTG chip
HDX_E1 CD73 chimera = biological target: T1, HDX_E1 CD73 chimera (human; chicken, UniProt P21589 27-553)
T1 chain: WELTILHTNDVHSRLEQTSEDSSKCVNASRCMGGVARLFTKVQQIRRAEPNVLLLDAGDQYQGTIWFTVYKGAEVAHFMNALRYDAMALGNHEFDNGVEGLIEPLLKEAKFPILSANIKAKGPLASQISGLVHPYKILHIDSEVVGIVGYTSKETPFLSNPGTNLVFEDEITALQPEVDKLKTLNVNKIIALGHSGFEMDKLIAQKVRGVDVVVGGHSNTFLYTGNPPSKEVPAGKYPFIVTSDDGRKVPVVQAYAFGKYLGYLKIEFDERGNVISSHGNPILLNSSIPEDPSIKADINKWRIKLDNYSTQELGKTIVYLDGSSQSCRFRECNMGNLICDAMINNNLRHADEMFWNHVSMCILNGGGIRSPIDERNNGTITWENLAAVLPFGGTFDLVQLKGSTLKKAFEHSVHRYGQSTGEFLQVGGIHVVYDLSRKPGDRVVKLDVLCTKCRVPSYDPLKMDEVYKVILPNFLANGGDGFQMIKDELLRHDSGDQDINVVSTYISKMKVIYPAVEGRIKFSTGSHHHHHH
Description: (§1) Binding of MEDI9447 to wild-type and mutant CD73 proteins was measured by surface plasmon resonance (SPR) using a ProteOn instrument (BioRad). CD73 crude cell supernatant protein samples were diluted to 3 µg/ml in PBS, 0.005% Tween-20, pH 7.4 (BioRad) and immobilized to ~400 RU on a HTG tris-NTA sensor chip (BioRad) pre-activated with 10 mM NiSO₄, 10 mM MES, pH 6.0 (BioRad). An equivalently diluted crude cell supernatant sample from non-transfected cells was included as a reference channel control. Sensorgrams were recorded by flowing two-fold dilutions of MEDI9447 prepared in PBS, 0.005% Tween-20, pH 7.4, ranging from 5 nM to 0.31 nM. […] Antibody binding was measured at a flow rate of 100 µL/min with a 3 min association phase and 20 min dissociation phase. The sensor chip surface was regenerated between each run by an 800 s injection of 300 mM EDTA, pH 8.5 (BioRad) at a flow rate of 30 µL/min. Binding kinetics were analyzed using the ProteOn data analysis software. Double referencing was performed and, unless noted otherwise, a 1:1 Langmuir binding model was utilized to fit the data. Some CD73 variants containing mutations within the amino acid region 171-188 fit poorly to a 1:1 model (i.e., Chi² values >10% of Rmax). Where noted, these variants were fit with a heterogenous antigen (2:1) model. […] Due to the assay format (antigen immobilized) and the dimeric state of CD73, KD values may be exaggerated due to avidity effects. However, it is not anticipated that this impacts ranking of MEDI9447 binding to the different CD73 variants.

[1] = biological target: T2, Human CD73 V144K+K180A, His-tagged (human, UniProt P21589 27-549)
T2 chain: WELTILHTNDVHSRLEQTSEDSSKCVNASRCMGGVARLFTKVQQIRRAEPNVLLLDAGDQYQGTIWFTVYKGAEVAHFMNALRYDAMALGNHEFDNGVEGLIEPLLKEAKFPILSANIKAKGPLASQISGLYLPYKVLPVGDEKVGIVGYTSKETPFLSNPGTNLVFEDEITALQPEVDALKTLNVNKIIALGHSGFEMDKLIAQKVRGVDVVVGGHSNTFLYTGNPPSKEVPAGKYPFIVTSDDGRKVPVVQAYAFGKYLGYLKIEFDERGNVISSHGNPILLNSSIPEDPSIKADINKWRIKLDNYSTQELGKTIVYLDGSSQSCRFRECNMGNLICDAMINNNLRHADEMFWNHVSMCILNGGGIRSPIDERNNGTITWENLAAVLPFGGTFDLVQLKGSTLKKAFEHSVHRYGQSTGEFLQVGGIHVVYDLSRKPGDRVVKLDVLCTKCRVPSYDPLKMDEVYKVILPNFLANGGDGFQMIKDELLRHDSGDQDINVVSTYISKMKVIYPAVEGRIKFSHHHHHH
Description: as §1

[2] = biological target: T3, Human CD73 K180A+N185G, His-tagged (human, UniProt P21589 27-549)
T3 chain: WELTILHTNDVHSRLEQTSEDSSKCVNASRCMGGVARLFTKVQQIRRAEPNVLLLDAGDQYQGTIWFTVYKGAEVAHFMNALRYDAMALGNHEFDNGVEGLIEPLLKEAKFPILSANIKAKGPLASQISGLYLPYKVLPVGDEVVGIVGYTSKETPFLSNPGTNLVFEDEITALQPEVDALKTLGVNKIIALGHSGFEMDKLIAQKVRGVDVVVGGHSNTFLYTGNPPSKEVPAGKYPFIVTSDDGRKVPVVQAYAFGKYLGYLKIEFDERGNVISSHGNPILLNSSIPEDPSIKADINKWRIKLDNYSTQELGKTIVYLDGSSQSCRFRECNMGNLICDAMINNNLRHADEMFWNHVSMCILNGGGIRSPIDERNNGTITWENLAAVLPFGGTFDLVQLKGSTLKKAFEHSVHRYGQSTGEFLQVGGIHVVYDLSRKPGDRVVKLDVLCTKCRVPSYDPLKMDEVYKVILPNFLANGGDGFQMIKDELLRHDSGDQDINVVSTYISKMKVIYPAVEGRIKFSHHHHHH
Description: as §1

B1: MEDI9447 (antibody, human IgG1, lambda, V domains shown)
VH: EVQLLESGGGLVQPGGSLRLSCAASGFTFSSYAYSWVRQAPGKGLEWVSAISGSGGRTYYADSVKGRFTISRDNSKNTLYLQMNSLRAEDTAVYYCARLGYGRVDEWGRGTLVTVSS
VL: QSVLTQPPSASGTPGQRVTISCSGSLSNIGRNPVNWYQQLPGTAPKLLIYLDNLRLSGVPDRFSGSKSGTSASLAISGLQSEDEADYYCATWDDSHPGWTFGGGTKLTVLG
notes: Human IgG1-TM (L234F, L235E, P331S), lambda light chain; also called clone 10.3 antibody; 73combo3
For B1, the Kd (HDX_E1 CD73 chimera) was 9.9 pM, the koff (HDX_E1 CD73 chimera) was 2.12e-05 s⁻¹ and the kon (HDX_E1 CD73 chimera) was 2.15e+06 M⁻¹ s⁻¹. The koff [1] was 0.00425 s⁻¹, the kon [1] was 1.58e+06 M⁻¹ s⁻¹ and the binding result [2] was “no binding”.
